According to patent US20200087373A1 (UNIVERSITY OF COPENHAGEN, published 2020):
Ends that are not written are not given here. * marks the point of attachment. C16 diacid = O=C(O)CCCCCCCCCCCCCCC(=O)*; Palmitoyl = CCCCCCCCCCCCCCCC(=O)*; Lauroyl = CCCCCCCCCCCC(=O)*

T1: human GIP receptor (human, UniProt P48546 22-466)
T1 sequence (looked up): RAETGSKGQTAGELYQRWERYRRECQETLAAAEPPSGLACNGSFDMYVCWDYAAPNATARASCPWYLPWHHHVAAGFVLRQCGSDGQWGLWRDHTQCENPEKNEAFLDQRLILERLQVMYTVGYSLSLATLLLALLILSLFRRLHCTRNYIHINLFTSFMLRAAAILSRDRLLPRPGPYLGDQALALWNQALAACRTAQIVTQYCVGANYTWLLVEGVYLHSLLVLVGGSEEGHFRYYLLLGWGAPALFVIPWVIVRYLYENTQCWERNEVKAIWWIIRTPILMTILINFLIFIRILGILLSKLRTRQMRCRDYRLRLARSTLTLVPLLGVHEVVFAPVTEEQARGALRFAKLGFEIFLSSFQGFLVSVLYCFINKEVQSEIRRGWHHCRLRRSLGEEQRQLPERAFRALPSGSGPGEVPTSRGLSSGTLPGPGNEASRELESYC

B1: AT317 [hGIP(3-30)NH2[A28K]-C16diacid/28] (peptide)
peptide: EGTFISDYSIAMDKIHQQDFVNWLLK(C16 diacid)QK-NH2
modifications: N-terminus assumed
SMILES: CC[C@H](C)[C@H](NC(=O)[C@H](CO)NC(=O)[C@H](Cc1ccc(O)cc1)NC(=O)[C@H](CC(=O)O)NC(=O)[C@H](CO)NC(=O)[C@@H](NC(=O)[C@H](Cc1ccccc1)NC(=O)[C@@H](NC(=O)CNC(=O)[C@@H](N)CCC(=O)O)[C@@H](C)O)[C@@H](C)CC)C(=O)N[C@@H](C)C(=O)N[C@@H](CCSC)C(=O)N[C@@H](CC(=O)O)C(=O)N[C@@H](CCCCN)C(=O)N[C@H](C(=O)N[C@@H](Cc1c[nH]cn1)C(=O)N[C@@H](CCC(N)=O)C(=O)N[C@@H](CCC(N)=O)C(=O)N[C@@H](CC(=O)O)C(=O)N[C@@H](Cc1ccccc1)C(=O)N[C@H](C(=O)N[C@@H](CC(N)=O)C(=O)N[C@@H](Cc1c[nH]c2ccccc12)C(=O)N[C@@H](CC(C)C)C(=O)N[C@@H](CC(C)C)C(=O)N[C@@H](CCCCNC(=O)CCCCCCCCCCCCCCC(=O)O)C(=O)N[C@@H](CCC(N)=O)C(=O)N[C@@H](CCCCN)C(N)=O)C(C)C)[C@@H](C)CC
B2: AT133 [hGIP(5-30)NH2[K16R; H18K; K30R]-C16/5] (peptide)
peptide: Palmitoyl-TFISDYSIAMDRIKQQDFVNWLLAQR-NH2
SMILES: CCCCCCCCCCCCCCCC(=O)N[C@H](C(=O)N[C@@H](Cc1ccccc1)C(=O)N[C@H](C(=O)N[C@@H](CO)C(=O)N[C@@H](CC(=O)O)C(=O)N[C@@H](Cc1ccc(O)cc1)C(=O)N[C@@H](CO)C(=O)N[C@H](C(=O)N[C@@H](C)C(=O)N[C@@H](CCSC)C(=O)N[C@@H](CC(=O)O)C(=O)N[C@@H](CCCNC(=N)N)C(=O)N[C@H](C(=O)N[C@@H](CCCCN)C(=O)N[C@@H](CCC(N)=O)C(=O)N[C@@H](CCC(N)=O)C(=O)N[C@@H](CC(=O)O)C(=O)N[C@@H](Cc1ccccc1)C(=O)N[C@H](C(=O)N[C@@H](CC(N)=O)C(=O)N[C@@H](Cc1c[nH]c2ccccc12)C(=O)N[C@@H](CC(C)C)C(=O)N[C@@H](CC(C)C)C(=O)N[C@@H](C)C(=O)N[C@@H](CCC(N)=O)C(=O)N[C@@H](CCCNC(=N)N)C(N)=O)C(C)C)[C@@H](C)CC)[C@@H](C)CC)[C@@H](C)CC)[C@@H](C)O
B3: AT316 [hGIP(3-30)NH2[L27K]-C16diacid/27] (peptide)
peptide: EGTFISDYSIAMDKIHQQDFVNWLK(C16 diacid)AQK-NH2
modifications: N-terminus assumed
SMILES: CC[C@H](C)[C@H](NC(=O)[C@H](CO)NC(=O)[C@H](Cc1ccc(O)cc1)NC(=O)[C@H](CC(=O)O)NC(=O)[C@H](CO)NC(=O)[C@@H](NC(=O)[C@H](Cc1ccccc1)NC(=O)[C@@H](NC(=O)CNC(=O)[C@@H](N)CCC(=O)O)[C@@H](C)O)[C@@H](C)CC)C(=O)N[C@@H](C)C(=O)N[C@@H](CCSC)C(=O)N[C@@H](CC(=O)O)C(=O)N[C@@H](CCCCN)C(=O)N[C@H](C(=O)N[C@@H](Cc1c[nH]cn1)C(=O)N[C@@H](CCC(N)=O)C(=O)N[C@@H](CCC(N)=O)C(=O)N[C@@H](CC(=O)O)C(=O)N[C@@H](Cc1ccccc1)C(=O)N[C@H](C(=O)N[C@@H](CC(N)=O)C(=O)N[C@@H](Cc1c[nH]c2ccccc12)C(=O)N[C@@H](CC(C)C)C(=O)N[C@@H](CCCCNC(=O)CCCCCCCCCCCCCCC(=O)O)C(=O)N[C@@H](C)C(=O)N[C@@H](CCC(N)=O)C(=O)N[C@@H](CCCCN)C(N)=O)C(C)C)[C@@H](C)CC
B4: AT134 [hGIP(5-30)NH2[K16R; H18K; K30R]-16/18] (peptide)
peptide: TFISDYSIAMDRIK(Palmitoyl)QQDFVNWLLAQR-NH2
modifications: N-terminus assumed
SMILES: CCCCCCCCCCCCCCCC(=O)NCCCC[C@H](NC(=O)[C@@H](NC(=O)[C@H](CCCNC(=N)N)NC(=O)[C@H](CC(=O)O)NC(=O)[C@H](CCSC)NC(=O)[C@H](C)NC(=O)[C@@H](NC(=O)[C@H](CO)NC(=O)[C@H](Cc1ccc(O)cc1)NC(=O)[C@H](CC(=O)O)NC(=O)[C@H](CO)NC(=O)[C@@H](NC(=O)[C@H](Cc1ccccc1)NC(=O)[C@@H](N)[C@@H](C)O)[C@@H](C)CC)[C@@H](C)CC)[C@@H](C)CC)C(=O)N[C@@H](CCC(N)=O)C(=O)N[C@@H](CCC(N)=O)C(=O)N[C@@H](CC(=O)O)C(=O)N[C@@H](Cc1ccccc1)C(=O)N[C@H](C(=O)N[C@@H](CC(N)=O)C(=O)N[C@@H](Cc1c[nH]c2ccccc12)C(=O)N[C@@H](CC(C)C)C(=O)N[C@@H](CC(C)C)C(=O)N[C@@H](C)C(=O)N[C@@H](CCC(N)=O)C(=O)N[C@@H](CCCNC(=N)N)C(N)=O)C(C)C
B5: AT135 [hGIP(5-30)NH2[K16R; K30R]-C16/5] (peptide)
peptide: Palmitoyl-TFISDYSIAMDRIHQQDFVNWLLAQR-NH2
SMILES: CCCCCCCCCCCCCCCC(=O)N[C@H](C(=O)N[C@@H](Cc1ccccc1)C(=O)N[C@H](C(=O)N[C@@H](CO)C(=O)N[C@@H](CC(=O)O)C(=O)N[C@@H](Cc1ccc(O)cc1)C(=O)N[C@@H](CO)C(=O)N[C@H](C(=O)N[C@@H](C)C(=O)N[C@@H](CCSC)C(=O)N[C@@H](CC(=O)O)C(=O)N[C@@H](CCCNC(=N)N)C(=O)N[C@H](C(=O)N[C@@H](Cc1c[nH]cn1)C(=O)N[C@@H](CCC(N)=O)C(=O)N[C@@H](CCC(N)=O)C(=O)N[C@@H](CC(=O)O)C(=O)N[C@@H](Cc1ccccc1)C(=O)N[C@H](C(=O)N[C@@H](CC(N)=O)C(=O)N[C@@H](Cc1c[nH]c2ccccc12)C(=O)N[C@@H](CC(C)C)C(=O)N[C@@H](CC(C)C)C(=O)N[C@@H](C)C(=O)N[C@@H](CCC(N)=O)C(=O)N[C@@H](CCCNC(=N)N)C(N)=O)C(C)C)[C@@H](C)CC)[C@@H](C)CC)[C@@H](C)CC)[C@@H](C)O
B6: AT318 [hGIP(3-30)NH2[Q29K]-C16diacid/29] (peptide)
peptide: EGTFISDYSIAMDKIHQQDFVNWLLAK(C16 diacid)K-NH2
modifications: N-terminus assumed
SMILES: CC[C@H](C)[C@H](NC(=O)[C@H](CO)NC(=O)[C@H](Cc1ccc(O)cc1)NC(=O)[C@H](CC(=O)O)NC(=O)[C@H](CO)NC(=O)[C@@H](NC(=O)[C@H](Cc1ccccc1)NC(=O)[C@@H](NC(=O)CNC(=O)[C@@H](N)CCC(=O)O)[C@@H](C)O)[C@@H](C)CC)C(=O)N[C@@H](C)C(=O)N[C@@H](CCSC)C(=O)N[C@@H](CC(=O)O)C(=O)N[C@@H](CCCCN)C(=O)N[C@H](C(=O)N[C@@H](Cc1c[nH]cn1)C(=O)N[C@@H](CCC(N)=O)C(=O)N[C@@H](CCC(N)=O)C(=O)N[C@@H](CC(=O)O)C(=O)N[C@@H](Cc1ccccc1)C(=O)N[C@H](C(=O)N[C@@H](CC(N)=O)C(=O)N[C@@H](Cc1c[nH]c2ccccc12)C(=O)N[C@@H](CC(C)C)C(=O)N[C@@H](CC(C)C)C(=O)N[C@@H](C)C(=O)N[C@@H](CCCCNC(=O)CCCCCCCCCCCCCCC(=O)O)C(=O)N[C@@H](CCCCN)C(N)=O)C(C)C)[C@@H](C)CC
B7: AT145 [hGIP(5-30)NH2[H18K]-C16/18] (peptide)
peptide: TFISDYSIAMDKIK(Palmitoyl)QQDFVNWLLAQK-NH2
modifications: N-terminus assumed
SMILES: CCCCCCCCCCCCCCCC(=O)NCCCC[C@H](NC(=O)[C@@H](NC(=O)[C@H](CCCCN)NC(=O)[C@H](CC(=O)O)NC(=O)[C@H](CCSC)NC(=O)[C@H](C)NC(=O)[C@@H](NC(=O)[C@H](CO)NC(=O)[C@H](Cc1ccc(O)cc1)NC(=O)[C@H](CC(=O)O)NC(=O)[C@H](CO)NC(=O)[C@@H](NC(=O)[C@H](Cc1ccccc1)NC(=O)[C@@H](N)[C@@H](C)O)[C@@H](C)CC)[C@@H](C)CC)[C@@H](C)CC)C(=O)N[C@@H](CCC(N)=O)C(=O)N[C@@H](CCC(N)=O)C(=O)N[C@@H](CC(=O)O)C(=O)N[C@@H](Cc1ccccc1)C(=O)N[C@H](C(=O)N[C@@H](CC(N)=O)C(=O)N[C@@H](Cc1c[nH]c2ccccc12)C(=O)N[C@@H](CC(C)C)C(=O)N[C@@H](CC(C)C)C(=O)N[C@@H](C)C(=O)N[C@@H](CCC(N)=O)C(=O)N[C@@H](CCCCN)C(N)=O)C(C)C

Target: T1, human GIP receptor
Assay: cell-based or functional assay

Row | Binder | cAMP agonism, EC50 (log) [log M] | cAMP agonism, Emax [%] | cAMP agonism, nM (EC50) [nM] | cAMP antagonism, log (IC50) [log M] | cAMP antagonism, nM (IC50) [nM]
1 | B1 | -7.2 | 21.8 | 62 | -6.6 | 228
2 | EGTFISDYSIAMDKIHQQDFVNWLLAQK-NH2 [hGIP(3-30)NH2] | – | – | – | -7.2 | 65
3 | B2 | – | 0 | – | -5.4 | 3810
4 | B3 | -6.5 | 6.2 | 294 | -6.2 | 649
5 | B4 | -7 | 11 | 35 | -7 | 93
6 | EGTFISDYSIAMDK(Lauroyl)IHQQDFVNWLLAQK-NH2 [AT102 [hGIP(3-30)NH2-C12/16]] | -9.1 | 66 | 0.7 | – | –
7 | B5 | – | 0 | – | – | –
8 | Lauroyl-EGTFISDYSIAMDKIHQQDFVNWLLAQK-NH2 [AT101 [hGIP(3-30)NH2-C12/3]] | -9.1 | 62 | 0.7 | – | –
9 | B6 | -6.9 | 10.8 | 131 | -6.6 | 224
10 | B7 | -7 | 16 | 33 | -7.2 | 66
